Assay results reported in publication PMC3025549.

Molecular target: recombinant mjRNAP (RNA polymerase of M. jannaschii), wild type (M. jannaschii) (UniProt Q58445)
Test: native gel or EMSA

recruitment activity relative to wild type (% of wild type): 140
B1: mjTFIIB K87-A (natural protein)
chain: MVWLMEALKTKENETTKEKKLTTKVEKSEKKEENVREEEIVCPICGSKEVVKDYERAEIVCAKCGCVIKEKLFDIGPEWRAFDHEQAIKRCRVGAPMTYSVDYNEPIIIKENGEIKVVKIGELIDKIIENSENIRREGILEIAKCKGIEVIAFNSNYKFKFMPVSEVSRHPVSEMFEIVVEGNKKVRVTRSHSVFTIRDNEVVPIRVDELKVGDILVLAKELPNIEEDIEIDKKFSKILGYIIAEGYYDDKKIVLSYDYNEKEFINETIDYFKSLNSDITIYSKDLNIQIEVKNKKIINLLKKLRVKNKRIPSIIFKSPYEIKKSFIDGIFNGKDAKVFVSKELAEDVIFLLLQIKENATINKKSINDIEVYEVRRITNIYTNRKLEKLINSDFIFLKIKEINKVEPTSGYAYDLTVPNAENFVAGFGGFVLHNTIHDKGLSTVIDWRNKDSYGKDLSANKRAQLYRLRKWQRRIRVSDAAERNLAFALSELDRITSKLGLPRHVRENAAIIYRGAVEKGLIRGRSIEGVVAAAIYAACRRCRVPRTLDEIAEASRVDRKEIGRTYRFLARELNIKLTPTNPIDYVPRFASELGLPGEVESKAIQILQQAAEKGLTSGRGPTGVAAAAIYIASVLLGCRRTQREVAEVAGVTEVTIRNRYKELTEHLDIDVTL
